{"source": "paper PMC8065039", "molecular_target": "CA521^FALA (human IgG4 monoclonal antibody with the F234A/L235A mutation) (human (from human antibody transgenic mice))", "sequence (heavy, as listed by the source, chain 1 of 2)": "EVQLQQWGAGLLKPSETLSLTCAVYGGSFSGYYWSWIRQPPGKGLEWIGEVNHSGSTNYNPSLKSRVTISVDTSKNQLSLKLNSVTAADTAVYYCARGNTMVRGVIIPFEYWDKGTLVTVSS", "sequence (light, as listed by the source, chain 2 of 2)": "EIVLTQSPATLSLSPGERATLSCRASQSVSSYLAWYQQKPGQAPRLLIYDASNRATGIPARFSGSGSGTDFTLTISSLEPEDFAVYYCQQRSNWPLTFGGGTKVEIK", "experiment": "BLI", "data": [{"substance": "SARS-CoV-2 RBD protein (40592-V05H, Sino Biological) (from UniProt P0DTC2) (domain or fragment)", "values": [{"measurement": "Kd", "value": 0.698, "unit": "nM"}]}]}
